Values quoted from earlier work, collected in paper PMC6828933.

Target: eNOS (Homo sapiens) (UniProt P29474)
UniProt P29474, sequence (P29474 2-1203): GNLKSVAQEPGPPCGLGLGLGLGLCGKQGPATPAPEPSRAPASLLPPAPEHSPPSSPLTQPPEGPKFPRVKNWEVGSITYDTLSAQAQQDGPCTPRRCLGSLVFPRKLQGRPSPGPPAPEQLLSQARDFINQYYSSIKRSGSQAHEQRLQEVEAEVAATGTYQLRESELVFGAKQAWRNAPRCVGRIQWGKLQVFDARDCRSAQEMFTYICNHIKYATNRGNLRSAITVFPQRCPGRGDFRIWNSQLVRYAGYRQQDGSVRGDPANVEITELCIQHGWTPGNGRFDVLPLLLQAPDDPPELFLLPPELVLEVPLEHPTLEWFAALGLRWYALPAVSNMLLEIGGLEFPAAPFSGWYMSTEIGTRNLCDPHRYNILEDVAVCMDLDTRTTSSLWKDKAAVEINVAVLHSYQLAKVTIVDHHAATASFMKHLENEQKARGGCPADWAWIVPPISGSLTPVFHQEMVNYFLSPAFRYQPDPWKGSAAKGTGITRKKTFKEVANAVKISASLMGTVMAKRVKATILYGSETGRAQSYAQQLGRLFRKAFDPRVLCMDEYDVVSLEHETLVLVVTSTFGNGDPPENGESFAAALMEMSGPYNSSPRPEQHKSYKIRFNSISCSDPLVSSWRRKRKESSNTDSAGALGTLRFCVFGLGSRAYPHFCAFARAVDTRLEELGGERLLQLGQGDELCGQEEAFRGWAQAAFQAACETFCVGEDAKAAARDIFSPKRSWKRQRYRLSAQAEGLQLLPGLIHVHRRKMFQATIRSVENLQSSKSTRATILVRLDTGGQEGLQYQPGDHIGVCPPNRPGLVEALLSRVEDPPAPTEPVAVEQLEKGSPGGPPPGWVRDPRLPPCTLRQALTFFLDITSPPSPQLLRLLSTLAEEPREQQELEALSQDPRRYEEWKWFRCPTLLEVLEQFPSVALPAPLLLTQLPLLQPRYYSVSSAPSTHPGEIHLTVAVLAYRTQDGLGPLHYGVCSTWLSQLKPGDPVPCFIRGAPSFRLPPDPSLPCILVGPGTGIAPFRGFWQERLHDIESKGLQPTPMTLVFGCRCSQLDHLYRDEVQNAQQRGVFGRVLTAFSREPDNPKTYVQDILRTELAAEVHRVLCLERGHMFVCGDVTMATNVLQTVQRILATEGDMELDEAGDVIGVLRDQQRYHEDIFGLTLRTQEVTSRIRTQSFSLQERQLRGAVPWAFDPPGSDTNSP

In the case of Caveolin-1 90-99 (from UniProt Q03135), the Kd is listed as 42 nM.
